Values quoted from earlier work as cited in article PMC9782320.

Target: plasmin (Homo sapiens) (UniProt P00747)
Sequence of UniProt P00747 (P00747 581-810): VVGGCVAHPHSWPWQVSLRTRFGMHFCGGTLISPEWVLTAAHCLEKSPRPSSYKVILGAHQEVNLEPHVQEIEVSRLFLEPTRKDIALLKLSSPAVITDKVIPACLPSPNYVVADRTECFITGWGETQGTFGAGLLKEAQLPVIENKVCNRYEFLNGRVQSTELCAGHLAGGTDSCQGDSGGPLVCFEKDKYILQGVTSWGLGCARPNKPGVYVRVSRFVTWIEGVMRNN

staphylokinase (from UniProt P68801)
Kd: 10 nM
